# According to IntAct's records for PubMed 25910212:
# B1: Emerin (Homo sapiens), P50402 (parent)
# chain: MDNYADLSDTELTTLLRRYNIPHGPVVGSTRRLYEKKIFEYETQRRRLSPPSSSAASSYSFSDLNSTRGDADMYDLPKKEDALLYQSKGYNDDYYEESYFTTRTYGEPESAGPSRAVRQSVTSFPDADAFHHQVHDDDLLSSSEEECKDRERPMYGRDSAYQSITHYRPVSASRSSLDLSYYPTSSSTSFMSSSSSSSSWLTRRAIRPENRAPGAGLGQDRQVPLWGQLLLFLVFVIVLFFIYHFMQAEEGNPF
# partner: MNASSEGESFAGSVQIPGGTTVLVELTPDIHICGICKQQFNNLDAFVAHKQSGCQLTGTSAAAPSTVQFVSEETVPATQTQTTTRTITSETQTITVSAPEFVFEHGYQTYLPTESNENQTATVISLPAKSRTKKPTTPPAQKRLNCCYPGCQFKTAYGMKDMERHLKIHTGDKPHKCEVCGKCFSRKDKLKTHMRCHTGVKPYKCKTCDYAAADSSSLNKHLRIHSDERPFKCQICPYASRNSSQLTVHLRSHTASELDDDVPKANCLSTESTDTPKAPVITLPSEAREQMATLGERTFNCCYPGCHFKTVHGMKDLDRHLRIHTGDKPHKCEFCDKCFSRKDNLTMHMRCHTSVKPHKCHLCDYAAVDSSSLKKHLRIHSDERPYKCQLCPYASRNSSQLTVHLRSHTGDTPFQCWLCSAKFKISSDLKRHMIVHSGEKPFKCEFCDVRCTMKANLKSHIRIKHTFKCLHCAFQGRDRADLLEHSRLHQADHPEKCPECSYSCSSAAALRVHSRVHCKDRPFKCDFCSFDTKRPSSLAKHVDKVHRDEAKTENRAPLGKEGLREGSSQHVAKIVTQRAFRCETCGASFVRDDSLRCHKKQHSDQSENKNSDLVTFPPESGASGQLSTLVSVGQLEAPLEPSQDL
# B2: Emerin (Homo sapiens), P50402 (parent)
# chain: B1 chain
# partner: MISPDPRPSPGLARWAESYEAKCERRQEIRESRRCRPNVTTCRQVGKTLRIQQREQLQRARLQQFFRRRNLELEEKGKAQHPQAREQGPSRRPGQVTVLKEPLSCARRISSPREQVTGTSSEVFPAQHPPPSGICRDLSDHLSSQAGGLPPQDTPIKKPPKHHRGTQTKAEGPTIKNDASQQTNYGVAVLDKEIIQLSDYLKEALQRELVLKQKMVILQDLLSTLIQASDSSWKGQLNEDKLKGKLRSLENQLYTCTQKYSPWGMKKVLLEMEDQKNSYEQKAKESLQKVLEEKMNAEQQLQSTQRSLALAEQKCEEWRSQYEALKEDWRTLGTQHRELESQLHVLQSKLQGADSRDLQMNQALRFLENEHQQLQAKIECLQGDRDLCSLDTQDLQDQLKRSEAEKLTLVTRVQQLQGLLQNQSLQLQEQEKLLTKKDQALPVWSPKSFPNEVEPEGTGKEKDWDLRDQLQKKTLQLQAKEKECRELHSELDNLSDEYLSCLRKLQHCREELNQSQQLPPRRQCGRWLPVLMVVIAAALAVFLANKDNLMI
# B3: EF-hand domain-containing protein 1 (Homo sapiens), Q5JVL4 (parent)
# chain: MVSNPVHGLPFLPGTSFKDSTKTAFHRSQTLSYRNGYAIVRRPTVGIGGDRLQFNQLSQAELDELASKAPVLTYGQPKQAPPADFIPAHVAFDKKVLKFDAYFQEDVPMSTEEQYRIRQVNIYYYLEDDSMSVIEPVVENSGILQGKLIKRQRLAKNDRGDHYHWKDLNRGINITIYGKTFRVVDCDQFTQVFLESQGIELNPPEKMALDPYTELRKQPLRKYVTPSDFDQLKQFLTFDKQVLRFYAIWDDTDSMYGECRTYIIHYYLMDDTVEIREVHERNDGRDPFPLLMNRQRVPKVLVENAKNFPQCVLEISDQEVLEWYTAKDFIVGKSLTILGRTFFIYDCDPFTRRYYKEKFGITDLPRIDVSKREPPPVKQELPPYNGFGLVEDSAQNCFALIPKAPKKDVIKMLVNDNKVLRYLAVLESPIPEDKDRRFVFSYFLATDMISIFEPPVRNSGIIGGKYLGRTKVVKPYSTVDNPVYYGPSDFFIGAVIEVFGHRFIILDTDEYVLKYMESNAAQYSPEALASIQNHVRKREAPAPEAESKQTEKDPGVQELEALIDTIQKQLKDHSCKDNIREAFQIYDKEASGYVDRDMFFKICESLNVPVDDSLVKELIRMCSHGEGKINYYNFVRAFSN
# partner: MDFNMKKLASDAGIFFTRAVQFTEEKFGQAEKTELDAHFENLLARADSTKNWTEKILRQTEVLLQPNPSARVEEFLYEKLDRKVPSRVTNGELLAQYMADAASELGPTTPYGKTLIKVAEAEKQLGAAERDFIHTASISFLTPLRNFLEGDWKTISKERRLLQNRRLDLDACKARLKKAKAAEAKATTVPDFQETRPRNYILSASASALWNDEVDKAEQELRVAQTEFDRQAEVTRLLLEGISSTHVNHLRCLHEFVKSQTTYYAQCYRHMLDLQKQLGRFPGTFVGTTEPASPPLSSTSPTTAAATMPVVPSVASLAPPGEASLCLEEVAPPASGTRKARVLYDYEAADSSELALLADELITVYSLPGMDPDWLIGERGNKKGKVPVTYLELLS
# B4: U4/U6 small nuclear ribonucleoprotein Prp31 (Homo sapiens), Q8WWY3 (parent)
# chain: MSLADELLADLEEAAEEEEGGSYGEEEEEPAIEDVQEETQLDLSGDSVKTIAKLWDSKMFAEIMMKIEEYISKQAKASEVMGPVEAAPEYRVIVDANNLTVEIENELNIIHKFIRDKYSKRFPELESLVPNALDYIRTVKELGNSLDKCKNNENLQQILTNATIMVVSVTASTTQGQQLSEEELERLEEACDMALELNASKHRIYEYVESRMSFIAPNLSIIIGASTAAKIMGVAGGLTNLSKMPACNIMLLGAQRKTLSGFSSTSVLPHTGYIYHSDIVQSLPPDLRRKAARLVAAKCTLAARVDSFHESTEGKVGYELKDEIERKFDKWQEPPPVKQVKPLPAPLDGQRKKRGGRRYRKMKERLGLTEIRKQANRMSFGEIEEDAYQEDLGFSLGHLGKSGSGRVRQTQVNEATKARISKTLQRTLQKQSVVYGGKSTIRDRSSGTASSVAFTPLQGLEIVNPQAAEKKVAEANQKYFSSMAEFLKVKGEKSGLMST
# partner: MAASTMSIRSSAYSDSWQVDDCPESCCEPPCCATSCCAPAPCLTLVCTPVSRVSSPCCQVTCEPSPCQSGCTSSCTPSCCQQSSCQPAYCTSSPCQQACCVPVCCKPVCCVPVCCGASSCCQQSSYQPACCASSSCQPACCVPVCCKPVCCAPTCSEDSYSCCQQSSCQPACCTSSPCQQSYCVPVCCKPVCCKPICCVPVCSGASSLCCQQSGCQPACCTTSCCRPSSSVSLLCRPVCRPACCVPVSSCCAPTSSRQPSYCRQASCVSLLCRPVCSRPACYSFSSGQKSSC
# B5: DNA repair protein XRCC4 (Homo sapiens), Q13426 (parent)
# chain: MERKISRIHLVSEPSITHFLQVSWEKTLESGFVITLTDGHSAWTGTVSESEISQEADDMAMEKGKYVGELRKALLSGAGPADVYTFNFSKESCYFFFEKNLKDVSFRLGSFNLEKVENPAEVIRELICYCLDTIAENQAKNEHLQKENERLLRDWNDVQGRFEKCVSAKEALETDLYKRFILVLNEKKTKIRSLHNKLLNAAQEREKDIKQEGETAICSEMTADRDPVYDESTDEESENQTDLSGLASAAVSKDDSIISSLDVTDIAPSRKRRQRMQRNLGTEPKMAPQENQLQEKENSRPDSSLPETSKKEHISAENMSLETLRNSSPEDLFDEI
# B6: Myelin proteolipid protein (Homo sapiens), P60201-2 (parent)
# chain: MGLLECCARCLVGAPFASLVATGLCFFGVALFCGCGHEALTGTEKLIETYFSKNYQDYEYLINVIHAFQYVIYGTASFFFLYGALLLAEGFYTTGAVRQIFGDYKTTICGKGLSATFVGITYALTVVWLLVFACSAVPVYIYFNTWTTCQSIAFPSKTSASIGSLCADARMYGVLPWNAFPGKVCGSNLLSICKTAEFQMTFHLFIAAFVGAAATLVSLLTFMIAATYNFAVLKLMGRGTKF
# partner: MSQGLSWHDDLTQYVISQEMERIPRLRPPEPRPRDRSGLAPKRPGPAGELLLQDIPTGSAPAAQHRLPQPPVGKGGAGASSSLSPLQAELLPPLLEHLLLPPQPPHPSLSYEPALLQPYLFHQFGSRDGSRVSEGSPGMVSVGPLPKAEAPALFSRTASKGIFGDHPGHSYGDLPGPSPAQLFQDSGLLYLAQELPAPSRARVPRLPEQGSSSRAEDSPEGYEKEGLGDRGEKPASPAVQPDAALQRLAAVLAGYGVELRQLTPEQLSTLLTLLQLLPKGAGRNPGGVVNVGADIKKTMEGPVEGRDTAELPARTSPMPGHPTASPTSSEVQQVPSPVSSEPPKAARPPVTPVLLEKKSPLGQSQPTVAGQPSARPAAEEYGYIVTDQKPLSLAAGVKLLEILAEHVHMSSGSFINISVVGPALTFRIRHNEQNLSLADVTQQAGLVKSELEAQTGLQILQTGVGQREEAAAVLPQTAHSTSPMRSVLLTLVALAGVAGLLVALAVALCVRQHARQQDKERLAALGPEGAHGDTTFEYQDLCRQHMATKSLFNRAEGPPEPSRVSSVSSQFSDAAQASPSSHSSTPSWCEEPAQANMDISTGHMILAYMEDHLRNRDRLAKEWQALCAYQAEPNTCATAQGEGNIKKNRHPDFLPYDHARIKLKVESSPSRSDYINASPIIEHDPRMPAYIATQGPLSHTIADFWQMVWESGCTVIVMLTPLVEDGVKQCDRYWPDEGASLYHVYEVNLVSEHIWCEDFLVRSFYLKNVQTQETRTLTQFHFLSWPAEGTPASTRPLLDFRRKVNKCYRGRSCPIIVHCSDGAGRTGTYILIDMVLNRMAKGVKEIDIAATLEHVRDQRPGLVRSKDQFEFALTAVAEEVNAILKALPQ
# B7: Low density lipoprotein receptor adapter protein 1 (Homo sapiens), Q5SW96 (parent)
# chain: MDALKSAGRALIRSPSLAKQSWGGGGRHRKLPENWTDTRETLLEGMLFSLKYLGMTLVEQPKGEELSAAAIKRIVATAKASGKKLQKVTLKVSPRGIILTDNLTNQLIENVSIYRISYCTADKMHDKVFAYIAQSQHNQSLECHAFLCTKRKMAQAVTLTVAQAFKVAFEFWQVSKEEKEKRDKASQEGGDVLGARQDCTPSLKSLVATGNLLDLEETAKAPLSTVSANTTNMDEVPRPQALSGSSVVWELDDGLDEAFSRLAQSRTNPQVLDTGLTAQDMHYAQCLSPVDWDKPDSSGTEQDDLFSF
# partner: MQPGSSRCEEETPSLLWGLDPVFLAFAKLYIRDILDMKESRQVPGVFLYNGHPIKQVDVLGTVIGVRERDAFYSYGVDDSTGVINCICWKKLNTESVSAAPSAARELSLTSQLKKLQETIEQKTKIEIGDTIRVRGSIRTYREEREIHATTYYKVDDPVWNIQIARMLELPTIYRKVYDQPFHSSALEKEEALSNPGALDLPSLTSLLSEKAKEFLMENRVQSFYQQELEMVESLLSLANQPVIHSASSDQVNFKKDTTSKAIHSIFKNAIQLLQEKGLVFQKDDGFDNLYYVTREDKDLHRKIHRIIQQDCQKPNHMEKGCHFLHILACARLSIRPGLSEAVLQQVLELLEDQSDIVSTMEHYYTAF
# Variants of: B1
# Conditions: with zf64b_human ZFP64, Q9NTW7
row,effect of a mutation on the interaction,Variant
1,with no effect,P183H
2,with no effect,S54F
3,with no effect,D72V

# Variants of: B2
# Conditions: with TRAF3IP3, Q9Y228
row,effect of a mutation on the interaction,Variant
1,with no effect,D72V
2,with no effect,S54F
3,with no effect,P183H
4,with no effect,P183T

# Variants of: B3
# Conditions: with shlb2_human SH3GLB2, Q9NR46
row,effect of a mutation on the interaction,Variant
1,disrupting interaction strength,P77T
2,with no effect,R159W
3,disrupting interaction strength,A394S
4,with no effect,T508R
5,disrupting interaction strength,R221H
6,with no effect,M448T

# Variants of: B4
# Conditions: with kr109_human KRTAP10-9, P60411
row,effect of a mutation on the interaction,Variant
1,with no effect,L107V

# Variants of: B5
# Conditions: with XRCC4, Q13426-3
row,effect of a mutation on the interaction,Variant
1,with no effect,I134T

# Variants of: B6
# Conditions: with PTPRN
row,effect of a mutation on the interaction,Variant
1,disrupting interaction strength,A213E
2,disrupting interaction strength,W128L
3,disrupting interaction strength,L87P
4,disrupting interaction strength,P15L

# Variants of: B7
# Conditions: with stn1_human STN1, Q9H668
row,effect of a mutation on the interaction,Variant
1,with no effect,R238W
